# Results: publication PMC5896933 (Molecular Biology of the Cell, 2018)
# T1: HA-tagged Ddi1^Δ202-299 (yeast, UniProt P40087 1-428, Δ202-299)
# T1 sequence (looked up): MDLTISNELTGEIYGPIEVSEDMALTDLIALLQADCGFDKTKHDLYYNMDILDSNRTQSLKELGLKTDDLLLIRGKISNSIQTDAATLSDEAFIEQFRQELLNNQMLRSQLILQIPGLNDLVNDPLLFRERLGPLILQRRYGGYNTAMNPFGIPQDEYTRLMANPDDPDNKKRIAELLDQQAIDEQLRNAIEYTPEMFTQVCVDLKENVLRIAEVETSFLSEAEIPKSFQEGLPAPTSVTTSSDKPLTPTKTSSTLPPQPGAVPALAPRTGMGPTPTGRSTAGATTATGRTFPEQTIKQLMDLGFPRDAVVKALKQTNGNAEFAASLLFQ
# Biological target: T1, HA-tagged Ddi1^Δ202-299
# Assay: co-IP
binder,measurement,value
"Cdc48-GFP (natural protein, yeast, UniProt P25694 1-835, looked up) MGEEHKPLLDASGVDPREEDKTATAILRRKKKDNMLLVDDAINDDNSVIAINSNTMDKLELFRGDTVLVKGKKRKDTVLIVLIDDELEDGACRINRVVRNNLRIRLGDLVTIHPCPDIKYATRISVLPIADTIEGITGNLFDVFLKPYFVEAYRPVRKGDHFVVRGGMRQVEFKVVDVEPEEYAVVAQDTIIHWEGEPINREDEENNMNEVGYDDIGGCRKQMAQIREMVELPLRHPQLFKAIGIKPPRGVLMYGPPGTGKTLMARAVANETGAFFFLINGPEVMSKMAGESESNLRKAFEEAEKNAPAIIFIDEIDSIAPKRDKTNGEVERRVVSQLLTLMDGMKARSNVVVIAATNRPNSIDPALRRFGRFDREVDIGIPDATGRLEVLRIHTKNMKLADDVDLEALAAETHGYVGADIASLCSEAAMQQIREKMDLIDLDEDEIDAEVLDSLGVTMDNFRFALGNSNPSALRETVVESVNVTWDDVGGLDEIKEELKETVEYPVLHPDQYTKFGLSPSKGVLFYGPPGTGKTLLAKAVATEVSANFISVKGPELLSMWYGESESNIRDIFDKARAAAPTVVFLDELDSIAKARGGSLGDAGGASDRVVNQLLTEMDGMNAKKNVFVIGATNRPDQIDPAILRPGRLDQLIYVPLPDENARLSILNAQLRKTPLEPGLELTAIAKATQGFSGADLLYIVQRAAKYAIKDSIEAHRQHEAEKEVKVEGEDVEMTDEGAKAEQEPEVDPVPYITKEHFAEAMKTAKRSVSDAELRRYEAYSQQMKASRGQFSNFNFNDAPLGTTATDNANSNNSAPSGAGAAFGSNAEEDDDLYS","fold more Cdc48 bound, normalized for the amount of precipitated Ddi1^Δ202-299",2.1 fold
